“And” between values parts separate entries of the source, which are not always exact repeats. Identical values can stand only once.
Conditions: Arachis hypogaea, Thermal, DSC, Sodium phosphate 0.05 M, NaCl 0.15 M, transition: 3, reversible: yes, whole UniProt chain shown

B1: Galactose-binding lectin wild type, P02872 (protein)
chain: MKPFCVFLTFFLLLAASSKKVDSAETVSFNFNSFSEGNPAINFQGDVTVLSNGNIQLTNLNKVNSVGRVLYAMPVRIWSSATGNVASFLTSFSFEMKDIKDYDPADGIIFFIAPEDTQIPAGSIGGGTLGVSDTKGAGHFVGVEFDTYSNSEYNDPPTDHVGIDVNSVDSVKTVPWNSVSGAVVKVTVIYDSSTKTLSVAVTNDNGDITTIAQVVDLKAKLPERVKFGFSASGSLGGRQIHLIRSWSFTSTLITTTRRSIDNNEKKIMNMASA
- Tm (pH 5.5): 56.9 °C and 61.2 °C
- unfolding enthalpy (calorimetric) (pH 5.5): 212 kcal/mol and 113 kcal/mol
- Tm (pH 6): 57.5 °C
- unfolding enthalpy (calorimetric) (pH 6): 218 kcal/mol
- Tm (pH 6.5): 58 °C and 62.5 °C
- unfolding enthalpy (calorimetric) (pH 6.5): 225 kcal/mol and 121 kcal/mol
- Tm (pH 7): 58.5 °C
- unfolding enthalpy (calorimetric) (pH 7): 231 kcal/mol
- unfolding enthalpy (van 't Hoff) (pH 7.4): 75.1 kcal/mol and 149 kcal/mol
- Tm (pH 7.8): 60.1 °C and 64.4 °C
- unfolding enthalpy (calorimetric) (pH 7.8): 245 kcal/mol and 132 kcal/mol
- Tm (pH 8.2): 61.2 °C and 65 °C
- unfolding enthalpy (calorimetric) (pH 8.2): 251 kcal/mol and 135 kcal/mol
